According to patent US7166568B1, “Compositions and methods to inhibit formation of the C5b-9 complex of complement” (Oklahoma Medical Research Foundation, priority 1998, dated 2007):
Entries after “also recorded” stand apart in the source; their conditions may differ.

molecular target: T1, hu CD59 (Homo sapiens, UniProt P13987); assay: Inhibitory function of CD59 towards recombinant C9 constructs (hemolysis of C5b-8 chE with or without membrane CD59); format: cell-based; settings: chE with hu C5b67 and rb C8, 0 or 750 ng/ml CD59; compared with hu C9 and rb C9
T1 construct: human erythrocyte membrane glycoprotein CD59 were purified; from tissue; host or cells: human erythrocyte membranes
T1 sequence (P13987 26-102): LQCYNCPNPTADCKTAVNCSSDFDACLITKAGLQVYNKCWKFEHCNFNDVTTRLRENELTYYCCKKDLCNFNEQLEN
Procedure: Analysis of the inhibitory function of CD 59 towards recombinant C9 constructs—Hemolytic activity of each C9 construct was assayed using as target cells chE that were reconstituted with purified hu CD59, as described by Husler, et al., (1995). chE were washed extensively and suspended in GVBS, and the membrane C5b67 complex assembled by mixing cells (1.4×10^9/ml) with C5b6 (13 μg/ml) followed by addition of C7 (1 μg/ml). After 10 min., the C5b67 chE were diluted to 1.4×10^8/ml in GVBE and incubated (10 min. 37° C.) with 0 or 750 ng/ml CD59. In each case, the final concentration of Nonidet P-40 was less than 0.002% (v/v). After washing in ice-cold GVBE, 2.8×10^8 of these cells were incubated (37° C.) in a total volume of 100 μl with 1 ng rb C8 plus, between zero and 50 ng of recombinant C9, serially diluted in Opti-MEM I. Hemolysis was determined after 30 minutes at 37° C., with correction for nonspecific lysis, determined in the absence of C9. In each experiment, the inhibitory activity of CD59 towards each recombinant C9 construct was determined from the reduction in complement lysis of those cells reconstituted with CD59, versus the identically-treated cells omitting CD59, measured at the midpoint of the C9 titration (i.e., 50% hemolysis). In order to directly compare results obtained in experiments performed on different days, data for each recombinant C9 construct were normalized to results obtained in each experiment with hu C9.

Substance | sensitivity of the C9 construct to inhibition of MAC lytic activity by membrane CD59
chimera #3: hu/rb C9 chimera H1-357R363–536 | indistinguishable from rb C9 and only weakly inhibited by CD59
chimera #1: hu/rb C9 chimera R1-338H334–415R425–536 | indistinguishable from hu C9 in its sensitivity to inhibition by CD59
chimera #4: hu/rb C9 chimera R1-363H359–415R425–536 | indistinguishable from hu C9
chimera #2: hu/rb C9 chimera R1-363H359–538 | unaffected
chimera #8: hu/rb C9 chimera H1-333R339–424H416–538 | indistinguishable from rb C9 and virtually unaffected by the presence of membrane CD59; also recorded: completely eliminated hu-selective interaction with CD59
chimera #12: hu/rb C9 chimera H1-357R363–393H385–538 | did not significantly diminish CD59's capacity to inhibit the lytic activity of C9
chimera #9: hu/rb C9 chimera H1-357R363–424H416–538 | did not completely eliminate interaction with CD59
chimera #6: hu/rb C9 chimera R1-400H392–415R425–536 | failed to confer any recognition by CD59
chimera #5: hu/rb C9 chimera R1-363H359–391R401–536 | conferred full recognition by CD59
chimera #7: hu/rb C9 chimera R1-363H359–384R394–536 | small but significant reduction in inhibition of MAC lytic activity by CD59
